# In US20090061443:
# B1: hDOT1L (human DOT1-like protein) (protein)
# chain: MGEKLELRLKSPVGAEPAVYPWPLPVYDKHHDAAHEIIETIRWVCEEIPDLKLAMENYVLIDYDTKSFESMQRLCDKYNRAIDSIHQLWKGTTQPMKLNTRPSTGLLRHILQQVYNHSVTDPEKLNNYEPFSPEVYGETSFDLVAQMIDEIKMTDDDLFVDLGSGVGQVVLQVAAATNCKHHYGVEKADIPAKYAETMDREFRKWMKWYGKKHAEYTLERGDFLSEEWRERIANTSVIFVNNFAFGPEVDHQLKERFANMKEGGRIVSSKPFAPLNFRINSRNLSDIGTIMRVVELSPLKGSVSWTGKPVSYYLHTIDRTILENYFSSLKNPKLREEQEAARRRQQRESKSNAATPTKGPEGKVAGPADAPMDSGAEEEKAGAATVKKPSPSKARKKKLNKKGRKMAGRKRGRPKKMNTANPERKPKKNQTALDALHAQTVSQTAASSPQDAYRSPHSPFYQLPPSVQRHSPNPLLVAPTPPALQKLLESFKIQYLQFLAYTKTPQYKASLQELLGQEKEKNAQLLGAAQQLLSHCQAQKEEIRRLFQQKLDELGVKALTYNDLIQAQKEISAHNQQLREQSEQLEQDNRALRGQSLQLLKARCEELQLDWATLSLEKLLKEKQALKSQISEKQRHCLELQISIVELEKSQRQQELLQLKSCVPPDDALSLHLRGKGALGRELEPDASRLHLELDCTKFSLPHLSSMSPELSMNGQAAGYELCGVLSRPSSKQNTPQYLASPLDQEVVPCTPSHVGRPRLEKLSGLAAPDYTRLSPAKIVLRRHLSQDHTVPGRPAASELHSRAEHTKENGLPYQSPSVPGSMKLSPQDPRPLSPGALQLAGEKSSEKGLRERAYGSSGELITSLPISIPLSTVQPNKLPVSIPLASVVLPSRAERARSTPSPVLQPRDPSSTLEKQIGANAHGAGSRSLALAPAGFSYAGSVAISGALAGSPASLTPGAEPATLDESSSSGSLFATVGSRSSTPQHPLLLAQPRNSLPASPAHQLSSSPRLGGAAQGPLPEASKGDLPSDSGFSDPESEAKRRIVFTITTGAGSAKQSPSSKHSPLTASARGDCVPSHGQDSRRRGRRKRASAGTPSLSAGVSPKRRALPSVAGLFTQPSGSPLNLNSMVSNINQPLEITAISSPETSLKSSPVPYQDHDQPPVLKKERPLSQTNGAHYSPLTSDEEPGSEDEPSSARIERKIATISLESKSPPKTLENGGGLAGRKPAPAGEPVNSSKWKSTFSPISDIGLAKSADSPLQASSALSQNSLFTFRPALEEPSADAKLAAHPRKGFPGSLSGADGLSPGTNPANGCTFGGGLAADLSLHSFSDGASLPHKGPEAAGLSSPLSFPSQRGKEGSDANPFLSKRQLDGLAGLKGEGSRGKEAGEGGLPLCGPTDKTPLLSGKAAKARDREVDLKNGHNLFISAAAVPPGSLLSGPGLAPAASSAGGAASSAQTHRSFLGPFPPGPQFALGPMSLQANLGSVAGSSVLQSLFSSVPAAAGLVHVSSAATRLTNSHAMGSFSGVAGGTVGGN
# Biological target: T1, Flag-CALM-AF10 fusion protein (wild-type), Q13492
# T1 chain: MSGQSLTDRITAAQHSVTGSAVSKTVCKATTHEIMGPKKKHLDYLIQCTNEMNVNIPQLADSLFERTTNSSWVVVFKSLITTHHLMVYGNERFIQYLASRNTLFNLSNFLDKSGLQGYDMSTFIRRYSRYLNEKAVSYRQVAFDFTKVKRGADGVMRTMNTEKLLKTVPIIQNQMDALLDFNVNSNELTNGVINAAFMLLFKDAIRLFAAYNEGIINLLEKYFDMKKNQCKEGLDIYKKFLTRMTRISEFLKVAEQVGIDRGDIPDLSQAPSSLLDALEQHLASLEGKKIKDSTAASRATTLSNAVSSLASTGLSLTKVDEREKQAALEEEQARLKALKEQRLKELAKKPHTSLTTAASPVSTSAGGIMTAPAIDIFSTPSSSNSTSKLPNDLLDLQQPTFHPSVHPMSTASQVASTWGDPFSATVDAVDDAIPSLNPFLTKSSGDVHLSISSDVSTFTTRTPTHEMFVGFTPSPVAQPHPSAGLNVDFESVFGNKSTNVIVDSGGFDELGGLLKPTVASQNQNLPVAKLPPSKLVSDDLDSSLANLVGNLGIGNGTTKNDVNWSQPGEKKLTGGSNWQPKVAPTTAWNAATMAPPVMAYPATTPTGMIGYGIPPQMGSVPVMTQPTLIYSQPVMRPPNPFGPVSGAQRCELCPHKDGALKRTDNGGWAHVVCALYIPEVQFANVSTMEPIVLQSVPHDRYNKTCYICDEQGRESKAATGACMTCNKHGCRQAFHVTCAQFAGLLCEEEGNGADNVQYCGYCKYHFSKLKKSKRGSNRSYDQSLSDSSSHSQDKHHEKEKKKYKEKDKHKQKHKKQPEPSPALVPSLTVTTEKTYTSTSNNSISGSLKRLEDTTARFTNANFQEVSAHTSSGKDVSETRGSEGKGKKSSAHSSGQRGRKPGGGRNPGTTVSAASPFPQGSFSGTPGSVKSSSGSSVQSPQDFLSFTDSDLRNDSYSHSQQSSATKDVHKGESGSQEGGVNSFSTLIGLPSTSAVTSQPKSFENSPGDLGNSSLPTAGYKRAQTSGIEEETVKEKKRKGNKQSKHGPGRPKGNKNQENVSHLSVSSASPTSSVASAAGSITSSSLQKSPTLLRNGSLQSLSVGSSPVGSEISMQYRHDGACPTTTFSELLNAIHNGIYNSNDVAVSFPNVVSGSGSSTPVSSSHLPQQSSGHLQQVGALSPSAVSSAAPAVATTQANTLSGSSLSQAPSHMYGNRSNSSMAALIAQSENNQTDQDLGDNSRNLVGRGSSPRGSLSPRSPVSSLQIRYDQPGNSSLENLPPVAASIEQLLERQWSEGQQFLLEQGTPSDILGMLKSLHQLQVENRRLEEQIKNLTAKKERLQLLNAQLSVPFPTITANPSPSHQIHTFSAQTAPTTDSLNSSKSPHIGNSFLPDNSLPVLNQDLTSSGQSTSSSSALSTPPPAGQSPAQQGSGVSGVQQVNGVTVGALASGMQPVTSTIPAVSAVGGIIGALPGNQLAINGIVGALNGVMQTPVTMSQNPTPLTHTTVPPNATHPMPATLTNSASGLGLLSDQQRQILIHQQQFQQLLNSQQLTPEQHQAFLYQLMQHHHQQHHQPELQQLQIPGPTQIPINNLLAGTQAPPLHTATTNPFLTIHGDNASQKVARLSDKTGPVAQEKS
protein,measurement,value
B1,confocal microscopy of co-expressed hDOT1L and CALM-AF10,High resolution analysis of the proteins indicates that they colocalize in the nucleus
